These results are taken from patent US20240132578A1.

What all share (experiment): cell-based or functional assay
Experiment [1] addresses HIV-1 Env of pseudovirus THRO.18 (HIV-1).
For experiment [2], the target named is HIV-1 Env of pseudovirus 92UG001 (HIV-1).
Experiment [3] deals with HIV-1 CMU02 envelope glycoprotein (Env), clade AE pseudovirus (HIV-1).
The target in experiment [4] is HIV-1 93UG077 envelope glycoprotein (Env), clade A pseudovirus (HIV-1).
For experiment [5], the target named is HIV-1 MGRM-C-026 envelope glycoprotein (Env), clade C pseudovirus (HIV-1).
Experiment [6] concerns the target HIV-1 envelope glycoprotein (Env) of isolate 92UG005 (HIV-1).
In experiment [7] the target is HIV-1 envelope glycoprotein (Env) of isolate 92UG024 (HIV-1).
Experiment [8] has as its target HIV-1 94UG103 Env (HIV-1 isolate 94UG103 (clade A)).
Experiment [9] deals with HIV-1 JRCSF envelope glycoprotein (Env) (HIV-1) (UniProt P20871).
Experiment [10] has as its target HIV-1 NL43 Env (pseudovirus) (HIV-1).
Experiment [11] has as its target HIV-1 APV13 envelope glycoprotein (Env) on virus (HIV-1, clade B, isolate APV13).
In experiment [12] the target is HIV-1 MGRM-AG-005 envelope glycoprotein (Env) on virus (HIV-1, clade AG, isolate MGRM-AG-005).
The target in experiment [13] is HIV-1 94UG103 envelope glycoprotein (Env) on virus (HIV-1, clade A, isolate 94UG103).
In experiment [14] the target is HIV-1 JRCSF envelope glycoprotein (Env) on virus (HIV-1, clade B, isolate JRCSF) (UniProt P20871).
Experiment [15] has as its target HIV-1 Env of isolate MGRM-D-018 (clade D) (HIV-1).
For experiment [16], the target named is HIV-1 Env of isolate APV6 (clade B) (HIV-1).

Bounds are passed on as bounds.

Chain of 5329_C19 (PGT-136) (antibody) (VH): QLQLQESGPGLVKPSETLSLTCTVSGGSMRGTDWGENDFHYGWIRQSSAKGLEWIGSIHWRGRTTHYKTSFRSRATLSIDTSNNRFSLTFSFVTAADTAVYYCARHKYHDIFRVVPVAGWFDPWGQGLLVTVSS
Chain of 5329_C19 (PGT-136) (antibody) (VL): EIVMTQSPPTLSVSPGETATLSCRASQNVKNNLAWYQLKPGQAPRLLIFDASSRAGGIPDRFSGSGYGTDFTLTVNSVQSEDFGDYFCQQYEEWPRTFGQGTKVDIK
Chain of 1443_C16 (PG16) (TCN-116) (antibody) (VH): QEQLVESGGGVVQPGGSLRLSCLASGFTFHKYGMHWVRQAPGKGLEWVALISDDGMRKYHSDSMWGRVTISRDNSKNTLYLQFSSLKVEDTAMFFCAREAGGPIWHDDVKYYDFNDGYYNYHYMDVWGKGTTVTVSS
Chain of 1443_C16 (PG16) (TCN-116) (antibody) (VL): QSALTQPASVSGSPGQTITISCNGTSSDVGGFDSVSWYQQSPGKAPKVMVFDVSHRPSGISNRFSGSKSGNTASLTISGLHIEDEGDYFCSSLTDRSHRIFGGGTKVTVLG

Consider 1443_C16 (PG16) (TCN-116) (antibody), for which the IC50, pseudovirus neutralization (TZM-bl assay) in [1] came out at 2.19 µg/mL.
As to PGV04 (antibody), the IC50, pseudovirus neutralization in experiment [2] was 0.553 µg/mL.
In [3], 4858_P08 (PGT-123) (antibody) yielded an IC50, pseudovirus neutralization greater than 10 µg/mL; an IC80 (pseudovirus neutralization) greater than 10 µg/mL; an IC90 (pseudovirus neutralization) greater than 10 µg/mL; an IC95 (pseudovirus neutralization) greater than 10 µg/mL. In experiment [4], this substance registered an IC50, pseudovirus neutralization of 0.0303 µg/mL; an IC80 (pseudovirus neutralization) of 0.143 µg/mL; an IC90 (pseudovirus neutralization) of 0.35 µg/mL; an IC95 (pseudovirus neutralization) of 0.78 µg/mL. In [5], the IC50, pseudovirus neutralization amounted to 0.0031 µg/mL; the IC80 (pseudovirus neutralization) turned out to be 0.0094 µg/mL; the IC90 (pseudovirus neutralization) is 0.0183 µg/mL; the IC95 (pseudovirus neutralization) was 0.0338 µg/mL.
In [6], 5141_B17 (PGT-126) (antibody) had a Neutralization IC80 of 0.145 µg/mL, a Neutralization IC90 of 0.553 µg/mL, a Neutralization IC95 of 2.45 µg/mL and a neutralization IC50 of 0.0181 µg/mL. In experiment [7], this substance had a Neutralization IC80 greater than 10 µg/mL, a Neutralization IC90 greater than 10 µg/mL, a Neutralization IC95 greater than 10 µg/mL and a neutralization IC50 greater than 10 µg/mL.
For 4838_L06 (PGT-121) (antibody), the Neutralization IC80 in [8] worked out at 8.85 µg/mL.
Turning to 5329_C19 (PGT-136) (antibody), in [9], the Neutralization IC80 is greater than 10 µg/mL, the Neutralization IC90 was greater than 10 µg/mL, the Neutralization IC95 is greater than 10 µg/mL and the neutralization IC50 was greater than 10 µg/mL.
In experiment [10], 5123_A06 (PGT-125) (antibody) had a Neutralization by PGT-125, IC50 greater than 10 µg/mL; a Neutralization by PGT-125, IC80 greater than 10 µg/mL; a Neutralization by PGT-125, IC90 greater than 10 µg/mL; a Neutralization by PGT-125, IC95 greater than 10 µg/mL.
Consider 4877_D15 (PGT-122) (antibody), for which, in experiment [11], the Neutralization IC80 was 4.14 µg/mL, the Neutralization IC90 came to 8.6 µg/mL, the Neutralization IC95 is greater than 10 µg/mL and the neutralization IC50 turned out to be 0.992 µg/mL. In [12], this substance registered a Neutralization IC80 greater than 10 µg/mL, a Neutralization IC90 greater than 10 µg/mL, a Neutralization IC95 greater than 10 µg/mL and a neutralization IC50 greater than 10 µg/mL. In experiment [13], the Neutralization IC80 was 6.58 µg/mL, the Neutralization IC90 was greater than 10 µg/mL, the Neutralization IC95 was greater than 10 µg/mL and the neutralization IC50 came out at 1.46 µg/mL. In experiment [14], the Neutralization IC80 stood at 0.245 µg/mL, the Neutralization IC90 worked out at 0.494 µg/mL, the Neutralization IC95 came to 0.926 µg/mL and the neutralization IC50 was 0.0727 µg/mL.
As for 1496_C09 (PG9) (TCN-109) (antibody), in [15], the Neutralization IC80 turned out to be 0.18 µg/mL, the Neutralization IC90 was 0.43 µg/mL, the Neutralization IC95 is 1.05 µg/mL and the neutralization IC50 is 0.0444 µg/mL. In experiment [16], the Neutralization IC80 is 1.13 µg/mL, the Neutralization IC90 was 3.21 µg/mL, the Neutralization IC95 amounted to 9.65 µg/mL and the neutralization IC50 was determined as 0.214 µg/mL.
